Reference: paper PMC11388069

How the values were obtained:
[1] = immunofluorescence, plasma membrane P-gp; conditions: glycan changed form; control: parental MCF7DOX
[2] = immunoprecipitation, western blot; conditions: glycan changed form; control: parental MCF7DOX
[3] = AHA labelling of newly synthesized P-gp; conditions: glycan changed form; control: parental MCF7DOX
[4] = NHS-LC-biotin labelled membranous P-gp degradation; conditions: glycan changed form; control: parental MCF7DOX
[5] = proteomics and blot of isolated microvesicles; conditions: glycan changed form; control: MCF7DOX-MVs

For “P-glycoprotein (P-gp, MDR1): MGAT3 overexpression”, the localisation_or_trafficking [1] was “decreases”, the expression_or_secretion [2] was “decreases” and the “other: new protein synthesis” value [3] was “no change”. The degradation_or_half_life [4] was “increases” and the “other: recruitment into microvesicles” value [5] was “decreases”.
